Biological target: heterodimeric LIF receptor (murine gp130 and LIFRα) on transiently transfected Ba/F3 cells (mouse) (UniProt Q00560)
Test: cell-based or functional assay

Sequence of heterodimeric LIF receptor (murine gp130 and LIFRα) on transiently transfected Ba/F3 cells (mouse) (Q00560 23-917, chain 1 of 2): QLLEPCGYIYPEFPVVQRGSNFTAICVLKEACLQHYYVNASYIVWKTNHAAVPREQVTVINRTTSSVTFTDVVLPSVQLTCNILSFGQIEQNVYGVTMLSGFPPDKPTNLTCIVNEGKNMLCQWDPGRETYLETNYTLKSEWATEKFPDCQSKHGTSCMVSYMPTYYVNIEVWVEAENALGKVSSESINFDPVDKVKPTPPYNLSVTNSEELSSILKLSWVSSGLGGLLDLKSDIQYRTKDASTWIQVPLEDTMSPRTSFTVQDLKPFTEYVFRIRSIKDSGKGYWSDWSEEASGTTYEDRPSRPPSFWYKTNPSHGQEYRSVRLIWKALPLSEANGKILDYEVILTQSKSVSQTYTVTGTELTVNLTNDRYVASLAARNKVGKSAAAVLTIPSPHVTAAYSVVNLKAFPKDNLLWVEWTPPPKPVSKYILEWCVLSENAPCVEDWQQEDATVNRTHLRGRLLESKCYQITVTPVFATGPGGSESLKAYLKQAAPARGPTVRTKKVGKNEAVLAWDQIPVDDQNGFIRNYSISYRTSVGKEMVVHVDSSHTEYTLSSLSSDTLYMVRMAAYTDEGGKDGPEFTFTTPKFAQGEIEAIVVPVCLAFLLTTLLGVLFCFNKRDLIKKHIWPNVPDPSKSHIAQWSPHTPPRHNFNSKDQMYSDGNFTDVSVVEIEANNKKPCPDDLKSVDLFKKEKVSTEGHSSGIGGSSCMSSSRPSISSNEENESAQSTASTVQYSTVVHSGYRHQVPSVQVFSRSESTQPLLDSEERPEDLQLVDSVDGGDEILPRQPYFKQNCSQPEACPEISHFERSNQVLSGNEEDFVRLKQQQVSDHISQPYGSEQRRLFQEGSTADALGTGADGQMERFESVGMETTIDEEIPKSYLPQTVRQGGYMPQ
Sequence of heterodimeric LIF receptor (murine gp130 and LIFRα) on transiently transfected Ba/F3 cells (mouse) (P42703 44-1092, chain 2 of 2, further chain): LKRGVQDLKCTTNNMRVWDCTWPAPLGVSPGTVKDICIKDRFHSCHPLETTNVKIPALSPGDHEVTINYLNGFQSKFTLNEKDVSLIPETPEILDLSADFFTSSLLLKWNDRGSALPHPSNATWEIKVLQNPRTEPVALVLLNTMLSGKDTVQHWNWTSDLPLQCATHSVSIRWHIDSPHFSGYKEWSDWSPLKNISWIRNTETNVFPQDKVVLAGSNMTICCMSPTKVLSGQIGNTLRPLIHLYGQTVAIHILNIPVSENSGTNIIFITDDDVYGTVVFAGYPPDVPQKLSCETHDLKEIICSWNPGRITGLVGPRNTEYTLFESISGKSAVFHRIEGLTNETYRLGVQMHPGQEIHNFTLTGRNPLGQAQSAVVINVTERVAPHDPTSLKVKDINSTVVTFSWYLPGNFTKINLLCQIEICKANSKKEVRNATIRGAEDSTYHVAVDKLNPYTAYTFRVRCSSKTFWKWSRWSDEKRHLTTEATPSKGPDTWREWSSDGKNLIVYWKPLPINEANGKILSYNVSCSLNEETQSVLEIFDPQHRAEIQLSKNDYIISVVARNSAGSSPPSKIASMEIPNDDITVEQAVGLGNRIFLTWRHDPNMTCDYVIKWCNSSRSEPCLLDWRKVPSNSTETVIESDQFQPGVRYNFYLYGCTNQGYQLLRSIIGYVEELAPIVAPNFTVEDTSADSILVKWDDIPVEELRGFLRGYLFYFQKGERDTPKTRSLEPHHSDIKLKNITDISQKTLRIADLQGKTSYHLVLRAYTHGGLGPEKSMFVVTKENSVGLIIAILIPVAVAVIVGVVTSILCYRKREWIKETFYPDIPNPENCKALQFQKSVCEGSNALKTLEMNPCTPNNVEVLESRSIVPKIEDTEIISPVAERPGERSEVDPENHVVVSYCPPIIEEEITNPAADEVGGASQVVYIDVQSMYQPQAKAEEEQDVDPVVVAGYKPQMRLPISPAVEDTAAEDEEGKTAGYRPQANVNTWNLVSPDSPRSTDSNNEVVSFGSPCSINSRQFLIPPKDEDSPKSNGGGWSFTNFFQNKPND

## human EPO splice variant hS3 (complete loss of exon 3) with C-terminal V5/His tag, produced in HEK293 cells (from UniProt P01588 28-193) (ligand)
  suppression of proliferation of M1 cells (MTT assay, 72 h, 15 nM hS3): 10%

From patent EP2226633A1
